For one substance, Kd results are on record in paper PMC9595563.

The Kd is the equilibrium constant for the complex coming apart. Read a high Kd as a looser complex.

The target in the experiment is SARS-CoV-2 spike protein (Wuhan-Hu-1) with C-terminal histidine, coated in the ELISA of Fig 2C (SARS-CoV-2) (UniProt P0DTC2). In words: ELISA. Background: An ELISA detects its analyte on a solid surface through an enzyme-linked reagent.

Chain of LRRC15-Fc (Q8TF66 22-538): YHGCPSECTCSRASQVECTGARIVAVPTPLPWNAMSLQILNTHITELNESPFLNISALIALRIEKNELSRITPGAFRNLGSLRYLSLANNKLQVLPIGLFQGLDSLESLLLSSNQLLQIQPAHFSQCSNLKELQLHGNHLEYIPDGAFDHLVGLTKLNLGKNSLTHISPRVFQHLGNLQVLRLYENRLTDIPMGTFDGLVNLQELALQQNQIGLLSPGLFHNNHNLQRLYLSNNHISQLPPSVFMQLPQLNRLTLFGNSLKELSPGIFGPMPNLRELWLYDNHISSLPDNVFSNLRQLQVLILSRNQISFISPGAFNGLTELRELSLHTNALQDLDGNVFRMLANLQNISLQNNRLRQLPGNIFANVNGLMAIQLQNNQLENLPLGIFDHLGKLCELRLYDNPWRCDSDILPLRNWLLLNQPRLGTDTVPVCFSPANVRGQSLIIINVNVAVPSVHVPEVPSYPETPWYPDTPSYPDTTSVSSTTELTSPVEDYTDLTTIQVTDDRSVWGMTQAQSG

In turn, “LRRC15-Fc (from UniProt Q8TF66) (Fc fusion)” came in with a dissociation constant (Kd) of 0.109 µM.
